Measurements taken from paper PMC6459835, “The RNA binding activity of the first identified trypanosome protein with Z-DNA-binding domains”.

What was measured:
Test in all cases: EMSA
Conditions in all cases: RBB50: 20 mM Tris-HCl pH 7.6, 50 mM KCl, 5 mM MgCl2, 100 mg/mL BSA (so in the source), 10% glycerol, 1 mM DTT, plus 100 mM KCl and 20 U RNasin; 20 ul, 30 min, RT …
[1] = tested on: RBP7910 F167A (Trypanosoma brucei)
[2] = tested on: RBP7910 W56A (Trypanosoma brucei)
[3] = tested on: RBP7910 W79A (Trypanosoma brucei)
[4] = tested on: RBP7910 P164A (Trypanosoma brucei)
[5] = tested on: RBP7910 R53A (Trypanosoma brucei)
[6] = tested on: RBP7910 T52A (Trypanosoma brucei)
[7] = tested on: RBP7910 W188A (Trypanosoma brucei)
[8] = tested on: RBP7910 P77A (Trypanosoma brucei)
[9] = tested on: RBP7910 P76A (Trypanosoma brucei)

## gA6[14] (delta16G) gRNA with U-tail
[1]
  Kd: 0.3 nM
[2]
  Kd: 0.37 nM
[3]
  Kd: 0.32 nM
[4]
  Kd: 0.27 nM
[5]
  Kd: 0.81 nM
[6]
  Kd: 0.61 nM
[7]
  Kd: 0.55 nM
[8]
  Kd: 0.3 nM
[9]
  Kd: 0.18 nM
